# Values of other authors as cited in paper PMC8844171 (Clinical Drug Investigation, 2022).
# Like-named read-outs stand apart in the source and are kept apart here.
# B1: alteplase: standard thrombolytic treatment for AIS (protein, UniProt P00750 36-562, looked up)
# Tissue-type plasminogen …: SYQVICRDEKTQMIYQQHQSWLRPVLRSNRVEYCWCNSGRAQCHSVPVKSCSEPRCFNGGTCQQALYFSDFVCQCPEGFAGKCCEIDTRATCYEDQGISYRGTWSTAESGAECTNWNSSALAQKPYSGRRPDAIRLGLGNHNYCRNPDRDSKPWCYVFKAGKYSSEFCSTPACSEGNSDCYFGNGSAYRGTHSLTESGASCLPWNSMILIGKVYTAQNPSAQALGLGKHNYCRNPDGDAKPWCHVLKNRRLTWEYCDVPSCSTCGLRQYSQPQFRIKGGLFADIASHPWQAAIFAKHRRSPGERFLCGGILISSCWILSAAHCFQERFPPHHLTVILGRTYRVVPGEEEQKFEVEKYIVHKEFDDDTYDNDIALLQLKSDSSRCAQESSVVRTVCLPPADLQLPDWTECELSGYGKHEALSPFYSERLKEAHVRLYPSSRCTSQHLLNRTVTDNMLCAGDTRSGGPQANLHDACQGDSGGPLVCLNDGRMTLVGIISWGLGCGQKDVPGVYTKVTNYLDWIRDNMRP
# Test system: patients with distal MCA or ICA occlusion
molecule,measurement,setting,value
B1,Recanalization rate,patients with ICA occlusion,< 10%
same,Recanalization rate,patients with distal MCA occlusion,approximately 40%
